Source: article PMC10725492 (Translational Psychiatry, 2023)
No end group written: not given here. *: point of attachment. Palmitoyl = CCCCCCCCCCCCCCCC(=O)*

Biological target: T1, recombinant APP N-terminal (18-612) fragment (UniProt P05067-4 18-612)
T1 construct: also called APP18-612; N-terminal APP; source: expressed by KMD Bioscience
Assay: SPR
Conditions: both partners purified

T1 sequence (P05067 other isoform, or with tags, fused parts or gaps): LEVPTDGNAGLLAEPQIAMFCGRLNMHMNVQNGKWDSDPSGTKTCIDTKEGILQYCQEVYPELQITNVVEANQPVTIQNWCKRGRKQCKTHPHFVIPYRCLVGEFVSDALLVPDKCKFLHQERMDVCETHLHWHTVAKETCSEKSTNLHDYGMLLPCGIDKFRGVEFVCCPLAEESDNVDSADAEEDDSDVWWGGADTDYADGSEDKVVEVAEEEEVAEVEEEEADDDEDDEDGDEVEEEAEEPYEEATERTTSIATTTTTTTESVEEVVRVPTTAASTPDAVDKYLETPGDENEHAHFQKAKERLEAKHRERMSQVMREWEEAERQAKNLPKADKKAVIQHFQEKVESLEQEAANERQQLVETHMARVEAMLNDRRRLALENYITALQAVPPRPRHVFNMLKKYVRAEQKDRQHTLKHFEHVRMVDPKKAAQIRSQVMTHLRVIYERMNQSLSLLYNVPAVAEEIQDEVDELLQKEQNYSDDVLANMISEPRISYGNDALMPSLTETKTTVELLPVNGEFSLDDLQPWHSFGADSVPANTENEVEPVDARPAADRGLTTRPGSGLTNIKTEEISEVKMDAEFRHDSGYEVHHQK

B1: AY51 peptide (peptide)
chain: KKKKKKLKVRLASHLRK(Palmitoyl)ELRKRLLRDA
modifications: not fully specified
In the case of B1, the Kd is reported as 554 nM.
